Key:
[1] = biological target: HLA-B*51:01; experiment: IEDB peptide-MHC binding, purified MHC/direct/fluorescence; filed as Kd, often an IC50 or EC50 that approximates it; ≥ and ≤ were set here for values at or beyond the usual limits of such assays; settings: source organism: Yellow fever virus 17D
[2] = biological target: HLA-A*01:01; experiment: as above
[3] = biological target: HLA-A*02:01; experiment: as above
[4] = biological target: HLA-A*02:03; experiment: as above
[5] = biological target: HLA-A*02:12; experiment: as above
[6] = biological target: HLA-A*03:01; experiment: as above
[7] = biological target: HLA-A*24:03; experiment: as above
[8] = biological target: HLA-A*29:02; experiment: as above
[9] = biological target: HLA-A*31:01; experiment: as above
[10] = biological target: HLA-A*68:02; experiment: as above
[11] = biological target: HLA-A*69:01; experiment: as above
[12] = biological target: HLA-B*07:02; experiment: as above; settings: source organism: Reston ebolavirus - Reston
[13] = biological target: HLA-B*15:01; experiment: as above
[14] = biological target: HLA-B*18:01; experiment: as above
[15] = biological target: HLA-B*39:01; experiment: as above
[16] = biological target: HLA-B*40:01; experiment: as above
[17] = biological target: HLA-B*44:02; experiment: as above
[18] = biological target: HLA-B*46:01; experiment: as above
[19] = biological target: HLA-B*57:01; experiment: as above
[20] = biological target: HLA-B*58:01; experiment: as above
[21] = biological target: HLA-A*26:01; experiment: IEDB peptide-MHC binding, purified MHC/competitive/fluorescence; filed as Kd, often an IC50 or EC50 that approximates it; ≥ and ≤ were set here for values at or beyond the usual limits of such assays
[22] = biological target: HLA-B*15:17; experiment: as above
[23] = biological target: HLA-B*27:03; experiment: as above
[24] = biological target: HLA-B*51:01; experiment: as above
[25] = biological target: HLA-A*69:01; experiment: as above; settings: source organism: Zaire ebolavirus
[26] = biological target: HLA-B*15:01; experiment: as above; settings: source organism: Zaire ebolavirus
[27] = biological target: HLA-B*18:01; experiment: as above; settings: source organism: Zaire ebolavirus
[28] = biological target: HLA-B*39:01; experiment: as above; settings: source organism: Zaire ebolavirus
[29] = biological target: HLA-B*46:01; experiment: as above; settings: source organism: Zaire ebolavirus
[30] = biological target: HLA-B*57:01; experiment: as above; settings: source organism: Zaire ebolavirus
[31] = biological target: HLA-A*02:11; experiment: IEDB peptide-MHC binding, purified MHC/direct/fluorescence; filed as Kd, often an IC50 or EC50 that approximates it; ≥ and ≤ were set here for values at or beyond the usual limits of such assays; settings: source organism: Sudan ebolavirus
[32] = biological target: HLA-A*02:19; experiment: as above; settings: source organism: Sudan ebolavirus
[33] = biological target: HLA-B*27:05; experiment: as above; settings: source organism: Sudan virus - Boniface, Sudan,1976
[34] = biological target: HLA-B*48:01; experiment: as above; settings: source organism: Sudan virus - Boniface, Sudan,1976
[35] = source organism: Reston ebolavirus - Reston
[36] = source organism: Zaire ebolavirus
[37] = source organism: Sudan virus - Boniface, Sudan,1976
[38] = source organism: Sudan ebolavirus

## RVSSDQSAL
[1]
  Kd: ≥ 20 µM

## SKLRALLTL
[2]; [35]
  Kd: ≥ 20 µM
[3]; [35]
  Kd: ≥ 20 µM
[4]; [36]
  Kd: ≥ 20 µM
[5]; [36]
  Kd: ≥ 20 µM
[6]; [35]
  Kd: ≥ 20 µM
[7]; [36]
  Kd: ≥ 20 µM
[8]; [35]
  Kd: ≥ 20 µM
[9]; [35]
  Kd: ≥ 20 µM
[10]; [36]
  Kd: ≥ 20 µM
[11]; [35]
  Kd: ≥ 20 µM
[12]
  Kd: ≥ 20 µM
[13]; [35]
  Kd: ≥ 20 µM
[14]; [35]
  Kd: ≥ 20 µM
[15]; [35]
  Kd: 618 nM
[16]; [35]
  Kd: ≥ 20 µM
[17]; [35]
  Kd: ≥ 20 µM
[18]; [35]
  Kd: ≥ 20 µM
[19]; [35]
  Kd: ≥ 20 µM
[20]; [35]
  Kd: ≥ 20 µM
[21]; [36]
  Kd: ≥ 20 µM
[22]; [36]
  Kd: ≥ 20 µM
[23]; [36]
  Kd: ≥ 20 µM
[24]; [36]
  Kd: ≥ 20 µM

## KLWTSISCA
[3]; source organism: Sudan ebolavirus - Maleo (1979)
  Kd: 0.0082 µM
[6]; [36]
  Kd: ≥ 20 µM
[7]; [36]
  Kd: ≥ 20 µM
[8]; [36]
  Kd: ≥ 20 µM
[10]; [36]
  Kd: ≥ 20 µM
[21]; [36]
  Kd: ≥ 20 µM
[25]
  Kd: ≥ 20 µM
[26]
  Kd: ≥ 20 µM
[22]; [36]
  Kd: ≥ 20 µM
[27]
  Kd: ≥ 20 µM
[23]; [36]
  Kd: ≥ 20 µM
[28]
  Kd: ≥ 20 µM
[29]
  Kd: ≥ 20 µM
[24]; [36]
  Kd: ≥ 20 µM
[30]
  Kd: ≥ 20 µM

## TMMRHRREL
[2]; [37]
  Kd: ≥ 20 µM
[3]; [37]
  Kd: ≥ 20 µM
[4]; [38]
  Kd: ≥ 20 µM
[31]
  Kd: ≥ 20 µM
[5]; [38]
  Kd: ≥ 20 µM
[32]
  Kd: ≥ 20 µM
[6]; [37]
  Kd: ≥ 20 µM
[7]; [38]
  Kd: ≥ 20 µM
[8]; [37]
  Kd: ≥ 20 µM
[9]; [37]
  Kd: ≥ 20 µM
[10]; [38]
  Kd: ≥ 20 µM
[11]; [37]
  Kd: ≥ 20 µM
[13]; [37]
  Kd: ≥ 20 µM
[14]; [37]
  Kd: ≥ 20 µM
[33]
  Kd: ≥ 20 µM
[15]; [37]
  Kd: ≥ 20000 nM
[16]; [37]
  Kd: ≥ 20 µM
[17]; [37]
  Kd: ≥ 20 µM
[18]; [37]
  Kd: ≥ 20 µM
[34]
  Kd: ≥ 20 µM
[19]; [37]
  Kd: ≥ 20 µM
[20]; [37]
  Kd: ≥ 20 µM
[21]; [38]
  Kd: ≥ 20 µM
[22]; [38]
  Kd: ≥ 20 µM
[23]; [38]
  Kd: ≥ 20 µM
[24]; [38]
  Kd: ≥ 20 µM
